The values that follow come from patent US8822645B2, “Prostaglandin E2 dual variable domain immunoglobulins and uses thereof” (AbbVie Inc., priority 2008, dated 2014).

In series [1] the test system is PGE2 / human EP4 receptor in HEK293 Gα16 cells. The series is described as follows: EP4 bioassay (Ca++ flux, neutralization of PGE2). The class given is cell-based. The following applies: for IC50: EP4 assay. On the procedure:
The ability of anti-PGE2 antibodies and anti-PGE2 containing DVD-Ig molecules to inhibit the cellular response of PGE2 was determined in a Ca++ flux assay in HEK293 Gα16 cells stably transfected with human EP4 receptor. Cells were plated in black/clear poly-D-lysine plates, (Corning #3667, Corning, N.Y.) and incubated with Ca++-sensitive dye (Molecular Devices) for 90 minutes. Stock PGE2 (in 200 proof ethanol) was diluted with FLIPR buffer (containing 1×HBSS (Invitrogen, Carlsbad, Calif.), 20 mM HEPES (Invitrogen, Carlsbad, Calif.), 0.1% BSA (Sigma, St. Louis, Mo.) and 2.5 mM Probenecid (Sigma, St. Louis, Mo.)). Anti-PGE2 antibodies, DVD-Ig molecules or isotype matched control antibodies were also pre-diluted in FLIPR buffer. 25 μl of PGE2 or pre-incubated PGE2/antibody mixture or pre-incubated PGE2/DVD-Ig molecule mixture was added to the wells pre-plated with cells. A dose response of PGE2 was done by a serial titration of PGE2 and was determined using FLIPR1 or Tetra (Molecular Devices). EC50 was determined using GraphPad Prism 5 (GraftPad Software, La Jolla, Calif.). […] Ca++ flux was monitored using FLIPR1 and data was analyzed using GraphPad Prism 5.
The ability of anti-PGE2 antibodies and anti-PGE2 containing DVD-Ig molecules to inhibit the cellular response of PGE2 was determined in a Ca++ flux assay using stably transfected human EP4 in HEK293 Gα16 cells. Cells were plated in black/clear Poly-D-Lysine plates, (Corning #3667) and incubated with Ca++-sensitive dye (Molecular Devices) for 90 minutes. Stock PGE2 (in 200 proof ethanol) was diluted with FLIPR buffer (containing 1×HBSS, 20 mM HEPES, 0.1% BSA and 2.5 mM Probenecid). Anti-PGE2 antibodies, DVD-Ig molecules or isotype matched control antibodies were also pre-diluted in FLIPR buffer. 25 μl of PGE2 or pre-incubated PGE2/antibody mixture or pre-incubated PGE2/DVD-Ig molecule mixture was added to the wells pre-plated with cells. A dose response of PGE2 was done by a serial titration of PGE2 and was determined using FLIPR1 or Tetra (Molecular Devices). EC50 was determined using GraphPad Prism 5. […] Ca++ flux was monitored using FLIPR1 and data was analyzed using GraphPad Prism 5.

Series [2] is described as follows: 3H-PGE2 ELISA (PGE2 binding affinity). On the procedure:
Alternatively, prostaglandin binding screen for antibodies or DVD-Ig molecules can be determined using a ^3H-PGE2 ELISA. Plates were coated at 50 μl/well with 5 μg/ml of goat anti-human IgG (Fc) (Thermo Scientific #31170, Hudson, N.H.) or goat anti-mouse IgG (Fc) (Thermo Scientific #31125, Hudson, N.H.) in PBS and incubated overnight at 4° C. The following day plates were flicked and blotted dry. Plates were then blocked with 200 μL/well of Superblock (Thermo Scientific #37515, Hudson, N.H.), for 1 hour at room temperature. Plates were flicked and blotted dry. Monoclonal antibodies were diluted to 0.04 μg/ml in PBST (Abbott Bioresearch Center, Worcester, Mass.)/10% Superblock and 50 uL of each antibody or DVD-Ig was added to each well of the pre-blocked ELISA plate at 2 ng/well and incubated for 1 hour at room temperature. Wells were washed 3 times with PBS+0.1% Tween-20. A serial 3 fold titration of ^3H-PGE2 (Perkin Elmer #NET-428, Waltham, Mass.) was prepared in PBST+10% Superblock. Fifty microliters of the ^3H-PGE2 solution was then added to each well of the plate and incubated for 1 hour at room temperature. Wells were washed 6 times with PBST+10% Superblock and 50 μL of scintillation fluid (Perkin Elmer #6013621, Waltham, Mass.) added to each well. Plates were read using the TopCount reader (Perkin Elmer, Waltham, Mass.) with a 5 minutes count delay. EC50 number was determined using GraphPad Prism 5 (GraphPad Software, La Jolla, Calif.).
On the technique in general: ELISA stands for enzyme-linked immunosorbent assay.

Series [3] can be described thus: PGE2-biotinamide ELISA (PGE2 binding). The following applies: PGE2 VD in C-terminal position, read-out: Direct Bind ELISA C-terminal VD EC50. The protocol:
(§1) Enzyme linked immunosorbent assays to screen for anti-PGE2 antibodies or anti-PGE2 containing DVD-Ig molecules that bind prostaglandin E2 were performed as follows. ELISA plates (Costar 3369, Corning, N.Y.) were coated with 50 μl of anti-host Fc IgG (Sigma, St. Louis, Mo.) at 2 μg/ml in PBS (Invitrogen Carlsbad, Calif.). Following an overnight incubation at 4° C., the plate was blocked with 200 μl Superblock (Pierce #37535, Rockford, Ill.). The IgG or DVD-Ig containing samples were diluted to 1 μg/ml in Assay Buffer (10% Superblock in PBS containing 0.05% Surfactamps (Pierce #37535, Rockford, Ill.) and incubated on the plate at 50 μl/well for 1 hour at room temperature. Following the incubation, plates were washed four times with TTBS (Tween-Tris Buffered Solution). For PGE2 binding, PGE2-biotinamide (Cayman Chemicals, Ann Arbor, Mich.) was diluted to 30 nM and serially diluted in Assay Buffer. The titration curve was added to each IgG or DVD-Ig sample at a volume of 50 μl/well and incubated for 1 hour at room temperature. The plates were washed as previously described and 50 μl/well of 1:5000 dilution of streptavidin polyhrp40 (Fitzgerald Industries, Concord, Mass.) in Assay Buffer was added and incubated for 45 minutes at room temperature. A final wash step was performed and the plates were developed using a single step TMB system (Sigma #T8665, St. Louis, Mo.) and 2N H2SO4. Plates were read at 450 nm on a Molecular Devices Spectramax plate reader (Sunnyvale, Calif.). EC50 was determined using GraphPad Prism 5 (GraphPad Software, La Jolla, Calif.) (FIG. 2).
as §1, with “ELISA” for “Enzyme linked immunosorbent assays to screen for anti-PGE2 antibodies or anti-PGE2 containing DVD-Ig molecules that bind prostaglandin E2 were performed as follows. ELISA”, “(Invitrogen,” for “(Invitrogen”, “IgG” for “IgG or DVD-Ig”, “Solution).” for “Solution). For PGE2 binding,”, “Calif.).” for “Calif.) (FIG. 2).”

Series [4] deals with target antigen. Kind of series: BIACORE affinity determination of parent antibodies and DVD-Ig constructs. The class given is binding. As to conditions: antigen IL-15, 25° C. The protocol: The BIACORE assay (Biacore, Inc, Piscataway, N.J.) determines the affinity of antibodies or DVD-Ig with kinetic measurements of on-rate and off-rate constants. […] All chemicals are obtained from Biacore® AB (Uppsala, Sweden) or otherwise from a different source as described in the text. For example, approximately 5000 RU of goat anti-mouse IgG, (Fcγ), fragment specific polyclonal antibody (Pierce Biotechnology Inc, Rockford, Ill.) diluted in 10 mM sodium acetate (pH 4.5) is directly immobilized across a CM5 research grade biosensor chip using a standard amine coupling kit according to manufacturer's instructions and procedures at 25 μg/ml. Unreacted moieties on the biosensor surface are blocked with ethanolamine. Modified carboxymethyl dextran surface in flowcell 2 and 4 is used as a reaction surface. Unmodified carboxymethyl dextran without goat anti-mouse IgG in flow cell 1 and 3 is used as the reference surface. For kinetic analysis, rate equations derived from the 1:1 Langmuir binding model are fitted simultaneously to association and dissociation phases of all eight injections (using global fit analysis) with the use of Biaevaluation 4.0.1 software. Purified antibodies or DVD-Ig are diluted in HEPES-buffered saline for capture across goat anti-mouse IgG specific reaction surfaces. Antibodies or DVD-Ig to be captured as a ligand (25 μg/ml) are injected over reaction matrices at a flow rate of 5 μl/min. The association and dissociation rate constants, kon (M^−1 s^−1) and koff (s^−1) are determined under a continuous flow rate of 25 μl/min. Rate constants are derived by making kinetic binding measurements at different antigen concentrations ranging from 10-200 nM. The equilibrium dissociation constant (M) of the reaction between antibodies or DVD-Igs and the target antigen is then calculated from the kinetic rate constants by the following formula: KD=koff/kon. Binding is recorded as a function of time and kinetic rate constants are calculated. In this assay, on-rates as fast as 10^6 M^−1 s^−1 and off-rates as slow as 10^−6 s^−1 can be measured.

Series [5] can be described thus: Size exclusion chromatography, percent monomer of parent antibodies and DVD-Ig constructs. The class given is physicochemical. The protocol:
Antibodies were diluted to 2.5 mg/mL with water and […] is analyzed on a Shimadzu HPLC system using a TSK gel G3000 SWXL column (Tosoh Bioscience, cat#k5539-05k). […] The HPLC system operating conditions are the following: […]
Background: In gel filtration, larger molecules generally elute earlier.

B1: 2B5-hSL-8C11: anti-murine TNFα/anti-PGE2 DVD-Ig, human short linker, SEQ ID 106/107 (antibody)
heavy: QVQLQQSGPELVRPGSSVKISCKASGYTFTKYWLGWVKQRPGHGLEWIGDIYPGYDYTHYNEKFKDKATLTVDTSSSTAYMQLSSLTSEDSAIYYCARSDGSSTYWGQGTLVTVSAASTKGPEFQLQQSGPELVKPGASVRISCKASGYSFTDYNMNWVKQSNGKSLEWVGVINPNYGSSTYNQKFKGKATLTVDQSSSTAYMQLNSLTSEDSAVYYCARKWGQLGRGFFDVWGTGTTVTVSS
light: DVLMTQTPLSLPVSLGDQASISCTSSQNIVHSNGNTYLEWYLQRPGQSPKLLIYKVSNRFSGVPDRFSGSGSGTVFTLKISRVEAEDLGVYYCFQVSHVPYTFGGGTKLEIKRTVAAPQIVLSQSPAILSASPGEKVTMTCRASSSVSYMHWFQQKPGSSPKPWIYATSNLASGVPARFSGSGSGTSYSLTISRVEAEDAATYYCQQWSSSPLTFGAGTKLELKR
One may read the IC50 as the point on the concentration scale where inhibition reaches its midpoint. Higher therefore signals a need for much substance. A word on the Kd: it is the free concentration of one partner at which half of the binding sites on the other are occupied at equilibrium, for simple one-to-one binding. B1 had an IC50 in series [1] of 0.02 nM. The affinity in series [2], expressed as Kd, was 0.238 nM.

B2: DVD154: DVD-Ig construct listed in Table 4 (antibody)
VH: EVQLVQSGAEVKKPGESLKISCKVSGYFFTTYWIGWVRQMPGKGLEYMGIIYPGDSDTRYSPSFQGQVTISADKSISTAYLQWSSLKASDTAMYYCARGGNWNCFDYWGQGTLVTVSSASTKGPEVQLVQSGAEVKKPGASVKVSCKASGYTFTKYWLGWVRQAPGQGLEWMGDIYPGYDYTHYNEKFKDRVTLTTDTSTSTAYMELRSLRSDDTAVYYCARSDGSSTYWGQGTLVTVSS
VL: EIVLTQSPGTLSLSPGERATLSCRASQSVSSSYLAWYQQKPGQAPRLLIYGASRRATGIPDRFSGSGSGTDFTLTISRLEPEDFAVYYCQRYGSSHTFGQGTKLEISRTVAAPDVLMTQTPLSLPVTPGEPASISCTSSQNIVHSNGNTYLEWYLQKPGQSPQLLIYKVSNRFSGVPDRFSGSGSGTDFTLKISRVEAEDVGVYYCFQVSHVPYTFGGGTKVEIKR
Usually EC50 stands for the concentration at which the effect is half-maximal. For orientation: koff means the first-order rate constant of dissociation. On to B2, for which the EC50 in series [1] (PGE2 VD in C-terminal position, EP4 bioassay, Ca++ flux, read-out: C-terminal VD PGE2 Neutralization EC50) was 0.029 nM; in series [3], 1.54 nM. Besides, the koff in series [4] came to 0.00198 s⁻¹. Further, the “% Monomer (purity)” value in series [5] was 88.7%.

B3: 2B5-hLL-8C11: anti-murine TNFα/anti-PGE2 DVD-Ig, human long linker, SEQ ID 108/109 (antibody)
heavy: QVQLQQSGPELVRPGSSVKISCKASGYTFTKYWLGWVKQRPGHGLEWIGDIYPGYDYTHYNEKFKDKATLTVDTSSSTAYMQLSSLTSEDSAIYYCARSDGSSTYWGQGTLVTVSAASTKGPSVFPLAPEFQLQQSGPELVKPGASVRISCKASGYSFTDYNMNWVKQSNGKSLEWVGVINPNYGSSTYNQKFKGKATLTVDQSSSTAYMQLNSLTSEDSAVYYCARKWGQLGRGFFDVWGTGTTVTVSS
light: DVLMTQTPLSLPVSLGDQASISCTSSQNIVHSNGNTYLEWYLQRPGQSPKLLIYKVSNRFSGVPDRFSGSGSGTVFTLKISRVEAEDLGVYYCFQVSHVPYTFGGGTKLEIKRTVAAPSVFIFPPQIVLSQSPAILSASPGEKVTMTCRASSSVSYMHWFQQKPGSSPKPWIYATSNLASGVPARFSGSGSGTSYSLTISRVEAEDAATYYCQQWSSSPLTFGAGTKLELKR
B3 yielded an IC50 in series [1] of 0.064 nM. The Kd in series [2] was 0.383 nM.
